Source: patent US20070244048A1 (published 2007)
Like-named read-outs stand apart in the source and are kept apart here. Non-standard residues stand in square brackets, D forms with d. *: point of attachment. Succinimide(1-Et,3-yl) = CCN1C(=O)CC(*)C1=O

What was measured:
human NMUR2 [1] = target: T1, human NMUR2 (human, UniProt Q9GZQ4 1-415); assay: 125I-hNMU-25 displacement, HEK cell membranes
Procedure: (§1) Confluent cell monolayers expressing NMU receptors (the HEK cells described above) were harvested with phosphate buffered saline, collected by centrifugation, and resuspended in membrane buffer (50 mM TrisCl pH 7.4, 5 mM MgCl₂, 1× Protease Inhibitor Cocktail, 10 μM phosphoramidon). After the cell pellet was homogenized, the solution was centrifuged at 18,000 rpm for 20 minutes at 4° C. The pellet was resuspended in membrane buffer to yield a final concentration of 0.5-5 μg/μL of membrane and stored at −80° C.
(§2) Experiments were performed in assay buffer (25 mM TrisCl, pH 7.4, 10 mM MgCl₂, 2mM EDTA, 1× Protease Inhibitor Cocktail, 100 μg/mL Bacitricin, 10 μM phosphoramidon) in 200 μL volumes in a 96-well format using 2-5 μg of membrane and […] ¹²⁵I-hNMU-25 (about 12,000 cpm/well). For non-specific binding, 1 μM hNMU-25 was added. About 5 μL of peptides were added to measure antagonist activity, and the entire reaction was incubated at room temperature with shaking for 80 minutes. The reaction was terminated by rapid filtration through 0.3% poly-ethylenimine presoaked Millipore 96-well filter plates and washed with ice-cold buffer (5 mM TrisCl pH 7.4, 10 mM MgCl₂, 2.5 mM EDTA, 0.04% Triton X-100). Plates were air-dried overnight at room temperature and recovered radioactivity was determined by standard scintillation counting. IC₅₀ values were determined using GraphPad Prism software.
(§3) Concentration-response curves and radioligand-binding data were fitted using Prism (GraphPad Software). Results are summarized below in Tables 8 and 9.

human NMUR1 [2] = target: T2, human NMUR1 (human, UniProt Q9HB89 1-426); assay: 125I-hNMU-25 displacement, HEK cell membranes
T2 sequence (looked up): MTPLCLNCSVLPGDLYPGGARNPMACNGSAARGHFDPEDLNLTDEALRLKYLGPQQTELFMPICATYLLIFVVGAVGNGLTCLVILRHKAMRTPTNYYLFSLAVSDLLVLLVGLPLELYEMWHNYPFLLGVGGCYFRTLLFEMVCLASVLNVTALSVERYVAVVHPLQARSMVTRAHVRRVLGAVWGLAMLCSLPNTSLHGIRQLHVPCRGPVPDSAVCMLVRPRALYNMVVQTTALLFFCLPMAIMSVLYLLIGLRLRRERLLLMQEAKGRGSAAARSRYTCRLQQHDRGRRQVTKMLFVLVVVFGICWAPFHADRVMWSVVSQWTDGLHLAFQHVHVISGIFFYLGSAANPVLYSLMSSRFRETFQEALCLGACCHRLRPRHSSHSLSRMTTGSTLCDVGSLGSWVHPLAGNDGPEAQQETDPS
Procedure: as §1, §2, §3

human NMUR2 [3] = target: T1, human NMUR2; assay: cell-based or functional assay
human NMUR1 [4] = target: T2, human NMUR1; assay: cell-based or functional assay
rat NMUR2 [5] = target: T3, rat NMUR2 (rat, UniProt Q9ESQ4 1-395); assay: cell-based or functional assay
T3 sequence (Q9ESQ4 whole entry): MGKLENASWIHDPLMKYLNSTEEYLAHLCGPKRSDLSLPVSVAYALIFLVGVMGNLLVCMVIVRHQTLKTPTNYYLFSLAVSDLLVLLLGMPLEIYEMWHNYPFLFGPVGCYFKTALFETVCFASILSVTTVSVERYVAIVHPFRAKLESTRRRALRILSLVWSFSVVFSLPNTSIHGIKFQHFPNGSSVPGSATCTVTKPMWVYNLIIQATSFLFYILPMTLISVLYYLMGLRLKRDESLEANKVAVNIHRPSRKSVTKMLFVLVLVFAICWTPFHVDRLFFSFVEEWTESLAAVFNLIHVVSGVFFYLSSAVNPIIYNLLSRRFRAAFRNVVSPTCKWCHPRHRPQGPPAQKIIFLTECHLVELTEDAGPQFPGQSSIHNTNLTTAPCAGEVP

rat NMUR1-ATG [6] = target: T4, rat NMUR1-ATG (rat, UniProt Q9JJI5 1-425); assay: cell-based or functional assay
T4 sequence (looked up): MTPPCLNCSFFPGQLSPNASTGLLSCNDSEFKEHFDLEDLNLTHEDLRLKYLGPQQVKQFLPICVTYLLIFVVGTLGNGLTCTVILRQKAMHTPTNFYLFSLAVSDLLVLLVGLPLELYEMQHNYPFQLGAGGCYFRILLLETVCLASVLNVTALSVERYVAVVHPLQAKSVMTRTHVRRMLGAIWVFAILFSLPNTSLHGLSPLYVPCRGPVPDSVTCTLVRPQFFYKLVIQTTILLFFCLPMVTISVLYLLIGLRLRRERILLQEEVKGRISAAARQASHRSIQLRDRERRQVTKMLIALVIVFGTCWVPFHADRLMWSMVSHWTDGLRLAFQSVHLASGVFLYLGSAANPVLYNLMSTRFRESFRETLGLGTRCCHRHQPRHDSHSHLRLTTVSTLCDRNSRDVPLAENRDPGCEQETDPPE

human NMUR2 [7] = target: T1, human NMUR2; assay: cell-based or functional assay; remark: listed apart in the source
human NMUR1 [8] = target: T2, human NMUR1; assay: cell-based or functional assay; remark: listed apart in the source
mouse NMUR1-ATG [9] = target: T5, mouse NMUR1-ATG (mouse, UniProt O55040 1-428); assay: cell-based or functional assay
T5 sequence (looked up): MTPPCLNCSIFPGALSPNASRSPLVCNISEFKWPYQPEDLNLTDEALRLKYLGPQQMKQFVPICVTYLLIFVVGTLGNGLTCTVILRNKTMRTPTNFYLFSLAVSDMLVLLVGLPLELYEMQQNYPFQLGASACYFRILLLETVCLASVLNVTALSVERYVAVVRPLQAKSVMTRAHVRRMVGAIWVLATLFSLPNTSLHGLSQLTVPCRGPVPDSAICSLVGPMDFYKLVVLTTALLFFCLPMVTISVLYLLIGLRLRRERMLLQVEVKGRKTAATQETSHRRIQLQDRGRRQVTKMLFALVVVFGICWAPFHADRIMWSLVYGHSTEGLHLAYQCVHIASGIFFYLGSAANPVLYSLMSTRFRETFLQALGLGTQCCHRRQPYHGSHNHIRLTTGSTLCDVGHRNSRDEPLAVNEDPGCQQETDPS

mouse NMUR1-CTG [10] = target: T6, mouse NMUR1-CTG (mouse, UniProt O55040 1-428); assay: cell-based or functional assay
T6 sequence (looked up): T5 sequence (looked up)

mouse NMUR2 [11] = target: T7, mouse NMUR2 (mouse, UniProt Q8BZ39 1-395); assay: cell-based or functional assay
T7 sequence (Q8BZ39 whole entry): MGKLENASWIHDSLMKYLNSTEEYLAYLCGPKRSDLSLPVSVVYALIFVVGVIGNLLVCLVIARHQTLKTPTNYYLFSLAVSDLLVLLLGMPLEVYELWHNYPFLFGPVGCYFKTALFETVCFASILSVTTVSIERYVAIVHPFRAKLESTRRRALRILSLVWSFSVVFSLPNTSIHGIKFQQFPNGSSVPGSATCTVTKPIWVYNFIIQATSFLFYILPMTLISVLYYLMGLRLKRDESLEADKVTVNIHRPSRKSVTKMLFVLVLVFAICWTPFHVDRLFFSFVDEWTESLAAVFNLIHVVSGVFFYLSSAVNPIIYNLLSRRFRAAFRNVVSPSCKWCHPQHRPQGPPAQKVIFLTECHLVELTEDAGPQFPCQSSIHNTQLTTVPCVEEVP

rat NMUR1-TTG [12] = target: T8, rat NMUR1-TTG (rat, UniProt Q9JJI5 1-425); assay: cell-based or functional assay
T8 sequence (looked up): T4 sequence (looked up)

mouse NMUR1-ATG [13] = target: T5, mouse NMUR1-ATG; assay: 125I-hNMU-25 displacement, cell membranes
human NMUR2 [14] = target: T1, human NMUR2; assay: 125I-hNMU-25 displacement, cell membranes
rat NMUR1-TTG [15] = target: T8, rat NMUR1-TTG; assay: 125I-hNMU-25 displacement, cell membranes
rat NMUR2 [16] = target: T3, rat NMUR2; assay: 125I-hNMU-25 displacement, cell membranes
human NMUR1 [17] = target: T2, human NMUR1; assay: 125I-hNMU-25 displacement, cell membranes
mouse NMUR1-CTG [18] = target: T6, mouse NMUR1-CTG; assay: 125I-hNMU-25 displacement, cell membranes
mouse NMUR2 [19] = target: T7, mouse NMUR2; assay: 125I-hNMU-25 displacement, cell membranes
rat NMUR1-ATG [20] = target: T4, rat NMUR1-ATG; assay: 125I-hNMU-25 displacement, cell membranes
mouse NMUR1-ATG [21] = target: T5, mouse NMUR1-ATG; assay: cell-based or functional assay; remark: listed apart in the source
human NMUR2 [22] = target: T1, human NMUR2; assay: cell-based or functional assay; remark: listed apart in the source
rat NMUR1-TTG [23] = target: T8, rat NMUR1-TTG; assay: cell-based or functional assay; remark: listed apart in the source
rat NMUR2 [24] = target: T3, rat NMUR2; assay: cell-based or functional assay; remark: listed apart in the source
human NMUR1 [25] = target: T2, human NMUR1; assay: cell-based or functional assay; remark: listed apart in the source
mouse NMUR1-CTG [26] = target: T6, mouse NMUR1-CTG; assay: cell-based or functional assay; remark: listed apart in the source
mouse NMUR2 [27] = target: T7, mouse NMUR2; assay: cell-based or functional assay; remark: listed apart in the source
rat NMUR1-ATG [28] = target: T4, rat NMUR1-ATG; assay: cell-based or functional assay; remark: listed apart in the source

T1 sequence (Q9GZQ4 whole entry): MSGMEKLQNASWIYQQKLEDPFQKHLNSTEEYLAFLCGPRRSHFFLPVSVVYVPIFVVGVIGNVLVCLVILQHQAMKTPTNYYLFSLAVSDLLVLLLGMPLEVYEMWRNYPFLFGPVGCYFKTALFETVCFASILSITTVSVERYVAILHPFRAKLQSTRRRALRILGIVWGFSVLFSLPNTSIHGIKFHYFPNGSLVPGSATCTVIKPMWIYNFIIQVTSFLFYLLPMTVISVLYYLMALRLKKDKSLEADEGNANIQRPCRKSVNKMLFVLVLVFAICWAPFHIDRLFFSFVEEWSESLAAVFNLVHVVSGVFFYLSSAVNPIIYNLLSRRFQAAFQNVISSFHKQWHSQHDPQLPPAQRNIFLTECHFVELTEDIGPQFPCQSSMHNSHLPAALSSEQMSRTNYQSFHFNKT

B1: NMU8 (peptide)
peptide: Ac-C(Succinimide(1-Et,3-yl))FRVDEEFQSPFASQSRGYFLFRPRN-NH2
- % activity (binding) (human NMUR2 [1]): 100%
- IC50 (human NMUR2 [1]): 0.3 nM
- % activity (binding) (human NMUR1 [2]): 100%
- IC50 (human NMUR1 [2]): 2.4 nM
- % activity (human NMUR2 [3]): 104%
- EC50 (human NMUR2 [3]): 2.9 nM
- % activity (human NMUR1 [4]): 100%
- EC50 (human NMUR1 [4]): 1.36 nM
- % Activity (FLIPR) (rat NMUR2 [5]): 94.7%
- EC50 (FLIPR) (rat NMUR2 [5]): 45.1 nM
- % Activity (FLIPR) (rat NMUR1-ATG [6]): 97.2%
- EC50 (FLIPR) (rat NMUR1-ATG [6]): 36.7 nM
- % Activity (FLIPR) (human NMUR2 [7]): 100%
- EC50 (FLIPR) (human NMUR2 [7]): 5.2 nM
- % Activity (FLIPR) (human NMUR1 [8]): 99.1%
- EC50 (FLIPR) (human NMUR1 [8]): 10.7 nM
- % Activity (FLIPR) (mouse NMUR1-ATG [9]): 100%
- EC50 (FLIPR) (mouse NMUR1-ATG [9]): 6.4 nM
- % Activity (FLIPR) (mouse NMUR1-CTG [10]): 100%
- EC50 (FLIPR) (mouse NMUR1-CTG [10]): 15.5 nM
- % Activity (FLIPR) (mouse NMUR2 [11]): 100%
- EC50 (FLIPR) (mouse NMUR2 [11]): 1.8 nM

B2: NMU13 (peptide)
peptide: Ac-C(Succinimide(1-Et,3-yl))FRVDEEFQSPFASQSRGYF[dA]WRPRN-NH2
SMILES: CCN1C(=O)CC(SC[C@H](NC(C)=O)C(=O)N[C@@H](Cc2ccccc2)C(=O)N[C@@H](CCCNC(=N)N)C(=O)N[C@H](C(=O)N[C@@H](CC(=O)O)C(=O)N[C@@H](CCC(=O)O)C(=O)N[C@@H](CCC(=O)O)C(=O)N[C@@H](Cc2ccccc2)C(=O)N[C@@H](CCC(N)=O)C(=O)N[C@@H](CO)C(=O)N2CCC[C@H]2C(=O)N[C@@H](Cc2ccccc2)C(=O)N[C@@H](C)C(=O)N[C@@H](CO)C(=O)N[C@@H](CCC(N)=O)C(=O)N[C@@H](CO)C(=O)N[C@@H](CCCNC(=N)N)C(=O)NCC(=O)N[C@@H](Cc2ccc(O)cc2)C(=O)N[C@@H](Cc2ccccc2)C(=O)N[C@H](C)C(=O)N[C@@H](Cc2c[nH]c3ccccc23)C(=O)N[C@@H](CCCNC(=N)N)C(=O)N2CCC[C@H]2C(=O)N[C@@H](CCCNC(=N)N)C(=O)N[C@@H](CC(N)=O)C(N)=O)C(C)C)C1=O
notes: also called NMUR1 selective peptide NMU13
- % Activity (FLIPR) (rat NMUR1-TTG [12]): 94.6%
- EC50 (FLIPR) (rat NMUR1-TTG [12]): 115 nM
- % Activity (FLIPR) (rat NMUR2 [5]): 0%
- EC50 (FLIPR) (rat NMUR2 [5]): > 1000 nM
- % Activity (FLIPR) (rat NMUR1-ATG [6]): 100%
- EC50 (FLIPR) (rat NMUR1-ATG [6]): 9.5 nM
- % inhibition of NMU-25 binding (mouse NMUR1-ATG [13]): 100%
- IC50 (mouse NMUR1-ATG [13]): 5.4 nM
- % inhibition of NMU-25 binding (human NMUR2 [14]): 48%
- % inhibition of NMU-25 binding (rat NMUR1-TTG [15]): 100%
- IC50 (rat NMUR1-TTG [15]): 3.24 nM
- % inhibition of NMU-25 binding (rat NMUR2 [16]): 0%
- % inhibition of NMU-25 binding (human NMUR1 [17]): 100%
- IC50 (human NMUR1 [17]): 4.3 nM
- % inhibition of NMU-25 binding (mouse NMUR1-CTG [18]): 100%
- IC50 (mouse NMUR1-CTG [18]): 3.5 nM
- % inhibition of NMU-25 binding (mouse NMUR2 [19]): 30%
- % inhibition of NMU-25 binding (rat NMUR1-ATG [20]): 100%
- IC50 (rat NMUR1-ATG [20]): 1.6 nM
- % activity (mouse NMUR1-ATG [21]): 96%
- IC50 (nM), functional (mouse NMUR1-ATG [21]): 7.8 nM
- % activity (human NMUR2 [22]): 0%
- IC50 (nM), functional (human NMUR2 [22]): > 1000 nM
- % activity (rat NMUR1-TTG [23]): 94%
- IC50 (nM), functional (rat NMUR1-TTG [23]): 107 nM
- % activity (rat NMUR2 [24]): 24%
- IC50 (nM), functional (rat NMUR2 [24]): > 1000 nM
- % activity (human NMUR1 [25]): 91%
- IC50 (nM), functional (human NMUR1 [25]): 1.7 nM
- % activity (mouse NMUR1-CTG [26]): 88%
- IC50 (nM), functional (mouse NMUR1-CTG [26]): 14 nM
- % activity (mouse NMUR2 [27]): 27%
- IC50 (nM), functional (mouse NMUR2 [27]): > 1000 nM
- % activity (rat NMUR1-ATG [28]): 92%
- IC50 (nM), functional (rat NMUR1-ATG [28]): 15.8 nM
- % Activity (FLIPR) (human NMUR2 [7]): 0%
- EC50 (FLIPR) (human NMUR2 [7]): > 1000 nM
- % Activity (FLIPR) (human NMUR1 [8]): 100%
- EC50 (FLIPR) (human NMUR1 [8]): 4.8 nM
- % Activity (FLIPR) (mouse NMUR1-ATG [9]): 98.6%
- EC50 (FLIPR) (mouse NMUR1-ATG [9]): 35.8 nM
- % Activity (FLIPR) (mouse NMUR1-CTG [10]): 73.6%
- EC50 (FLIPR) (mouse NMUR1-CTG [10]): 142 nM
- % Activity (FLIPR) (mouse NMUR2 [11]): 0%
- EC50 (FLIPR) (mouse NMUR2 [11]): > 1000 nM
